Measured values published in article PMC6900432, “Zinc binding regulates amyloid-like aggregation of GAPR-1” (Bioscience Reports, 2019).

Biological target: the molecule itself
Assay: non-reducing SDS/PAGE and Western blot of oligomers; 15 uM GAPR-1 with 37.5 uM heparin and 100 uM Zn2+ in NT-50 buffer (25 mM Tris, 50 mM NaCl, pH 7.4) at 37 C; aliquots at 0, 2, 7 and 20 h, non-reducing Laemmli buffer, boiled 5 min; blot with rabbit polyclonal anti-GAPR-1

B1: Golgi-Associated plant Pathogenesis Related protein 1 (GAPR-1), wild type (natural protein)
chain: MGKSASKQFHNEVLKAHNEYRQKHGVPPLKLCKNLNREAQQYSEALASTRILKHSPESSRGQCGENLAWASYDQTGKEVADRWYSEIKNYNFQQPGFTSGTGHFTAMVWKNTKKMGVGKASASDGSSFVVARYFPAGNVVNEGFFEENVLPPKK
notes: GAPR-1 (GLIPR-2), UniProt Q9H4G4 as printed; No tag is named; purification was by cation exchange; also called GAPR-1 WT; GLIPR-2; source: E. coli XL-1 Blue, purified (cation exchange, SP Sepharose FF)
binding result: binds
